# Source: patent publication WO2007059300A2 (dated 2007)
# Key:
# [1] = target: T1, ALK-ECD-myc/his tag protein (human, UniProt Q9UM73 19-1038); experiment: ELISA, ALK-ECD-myc/his coated at 10 μg/mL, anti-human IgG-HRP
# T1 construct: Expressed in 293/293F cells and purified from conditioned medium; biotin labelled for the soluble panning; also called recombinant ALK-ECD-myc/his tag; ALK-ECD protein; not shown: Myc/His tag
# [2] = target: T2, ALK expressed on the cell surface (human, UniProt Q9UM73 19-1620); experiment: FACS on ALK positive cells, 1 to 20 μg/mL IgG, FITC anti-human IgG
# T2 construct: also called ALK protein expressed on the cell surface; ALK-expressing cells
# T2 sequence (Q9UM73 other isoform, or with tags, fused parts or gaps limits assumed): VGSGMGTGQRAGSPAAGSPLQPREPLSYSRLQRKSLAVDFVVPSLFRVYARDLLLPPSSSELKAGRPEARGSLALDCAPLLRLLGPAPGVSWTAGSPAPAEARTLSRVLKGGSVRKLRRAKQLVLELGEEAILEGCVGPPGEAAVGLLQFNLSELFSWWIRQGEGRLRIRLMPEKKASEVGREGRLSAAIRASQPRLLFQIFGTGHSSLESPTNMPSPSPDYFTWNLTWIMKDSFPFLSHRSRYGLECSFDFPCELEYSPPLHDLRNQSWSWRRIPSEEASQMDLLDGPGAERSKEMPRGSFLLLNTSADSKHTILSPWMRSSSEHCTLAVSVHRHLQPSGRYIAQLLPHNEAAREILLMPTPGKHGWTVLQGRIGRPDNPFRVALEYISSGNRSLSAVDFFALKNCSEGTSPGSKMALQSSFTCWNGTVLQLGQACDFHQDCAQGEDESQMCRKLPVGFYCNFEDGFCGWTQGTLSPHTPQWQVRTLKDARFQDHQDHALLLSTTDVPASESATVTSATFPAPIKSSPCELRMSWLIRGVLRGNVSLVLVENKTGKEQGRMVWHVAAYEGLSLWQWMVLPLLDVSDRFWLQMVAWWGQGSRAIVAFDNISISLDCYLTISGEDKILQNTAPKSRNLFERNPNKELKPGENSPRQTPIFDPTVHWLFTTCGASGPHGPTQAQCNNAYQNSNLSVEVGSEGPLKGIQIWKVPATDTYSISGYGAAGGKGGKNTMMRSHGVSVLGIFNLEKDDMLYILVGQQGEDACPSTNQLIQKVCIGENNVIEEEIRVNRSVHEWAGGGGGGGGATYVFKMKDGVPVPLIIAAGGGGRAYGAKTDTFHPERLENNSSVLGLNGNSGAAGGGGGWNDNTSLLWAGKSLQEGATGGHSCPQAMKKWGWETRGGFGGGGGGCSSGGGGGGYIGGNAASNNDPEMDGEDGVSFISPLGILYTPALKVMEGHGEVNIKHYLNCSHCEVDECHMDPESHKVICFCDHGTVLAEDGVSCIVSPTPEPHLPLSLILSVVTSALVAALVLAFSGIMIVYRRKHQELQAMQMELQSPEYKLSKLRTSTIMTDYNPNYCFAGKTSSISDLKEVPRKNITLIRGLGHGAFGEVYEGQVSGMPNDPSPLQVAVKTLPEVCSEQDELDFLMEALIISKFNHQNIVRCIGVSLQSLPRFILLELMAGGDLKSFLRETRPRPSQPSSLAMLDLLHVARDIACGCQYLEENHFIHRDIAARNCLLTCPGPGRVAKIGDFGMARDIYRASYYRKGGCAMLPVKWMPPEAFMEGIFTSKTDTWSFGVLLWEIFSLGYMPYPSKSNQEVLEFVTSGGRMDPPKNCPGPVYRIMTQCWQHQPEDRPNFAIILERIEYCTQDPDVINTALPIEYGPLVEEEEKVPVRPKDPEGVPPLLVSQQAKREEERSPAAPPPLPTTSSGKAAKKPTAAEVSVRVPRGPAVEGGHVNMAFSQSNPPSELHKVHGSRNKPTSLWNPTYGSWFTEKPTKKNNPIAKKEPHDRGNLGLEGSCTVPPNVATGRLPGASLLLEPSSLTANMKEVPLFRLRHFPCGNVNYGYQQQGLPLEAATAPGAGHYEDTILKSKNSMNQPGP
# T1 sequence (Q9UM73 other isoform, or with tags, fused parts or gaps): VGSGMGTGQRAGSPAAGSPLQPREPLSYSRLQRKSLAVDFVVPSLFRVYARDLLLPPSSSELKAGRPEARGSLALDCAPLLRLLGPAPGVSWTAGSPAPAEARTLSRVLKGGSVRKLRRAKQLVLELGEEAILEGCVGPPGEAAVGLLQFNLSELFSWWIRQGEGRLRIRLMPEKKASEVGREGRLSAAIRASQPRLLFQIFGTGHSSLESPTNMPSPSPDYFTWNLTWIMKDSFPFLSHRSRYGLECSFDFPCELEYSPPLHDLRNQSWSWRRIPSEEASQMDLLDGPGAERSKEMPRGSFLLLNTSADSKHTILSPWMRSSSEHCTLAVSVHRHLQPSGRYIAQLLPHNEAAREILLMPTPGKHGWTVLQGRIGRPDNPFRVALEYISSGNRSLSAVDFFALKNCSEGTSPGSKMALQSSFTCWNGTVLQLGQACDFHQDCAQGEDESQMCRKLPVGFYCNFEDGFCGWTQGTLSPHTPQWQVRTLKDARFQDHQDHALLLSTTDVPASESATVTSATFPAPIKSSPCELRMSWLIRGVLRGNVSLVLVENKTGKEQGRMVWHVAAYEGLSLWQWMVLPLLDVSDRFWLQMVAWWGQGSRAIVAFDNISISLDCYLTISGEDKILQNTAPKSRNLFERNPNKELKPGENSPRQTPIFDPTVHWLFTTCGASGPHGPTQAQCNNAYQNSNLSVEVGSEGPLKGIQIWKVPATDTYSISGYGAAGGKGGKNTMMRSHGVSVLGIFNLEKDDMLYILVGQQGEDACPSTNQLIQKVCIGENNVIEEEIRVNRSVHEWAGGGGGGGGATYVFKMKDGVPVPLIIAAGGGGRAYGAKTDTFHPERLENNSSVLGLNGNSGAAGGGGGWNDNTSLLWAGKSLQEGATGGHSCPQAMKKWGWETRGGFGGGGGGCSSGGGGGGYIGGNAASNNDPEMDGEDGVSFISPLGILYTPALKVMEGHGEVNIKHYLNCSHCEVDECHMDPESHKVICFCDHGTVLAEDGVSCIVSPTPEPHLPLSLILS
binding result [1],binding result [2],Binder
binds,,"fully human anti-ALK IgG A7 (antibody, V domains shown, Full length fully human IgG) VH: EVQLLESGGGLVQPGGSLRLSCAASGFTFSNYIMSWVRQAPGKGLEWVSWISSSGGFTQYADSVKGRFTISRDNSKNTLYLQMNSLRAEDTAVYYCARVIAAAGAFDYWGQGTLVTVSS VL: DIQMTQSPSSVAASVGDRVTITCRASQDISTWLAWYQQKPGKAPKLLLSGASRLERGVPSRFSGSGSGTDFTLTIRGLQSEDFATYYCQQARSFPPTFGQGTRVEMR"
binds,,"fully human anti-ALK IgG C1 (antibody, V domains shown, Full length fully human IgG; also called Cl) VH: EVQLLESGGGLVQPGGSLRLSCAASGFTFSMYPMDWVRQAPGKGLEWVSRISSSGGTTEYADSVKGRFTISRDNSKNTLYLQMNSLRAEDTAVYYCTRRFCISGVCPFEYWGQGTLVTVSS VL: QSALTQPPSASGTPGQRVTISCSGSSSNIGSNTVNWYQQLPGTAPKLLIYSNNQRPSGVPDRFSGSKSGTSASLAISGLQSEDEADYYCQSYDNSLTNFVFGSGTKVTVLG"
binds,,"fully human anti-ALK IgG B6 (antibody, V domains shown, Full length fully human IgG) VH: EVQLLESGGGLVQPGGSLRLSCAASGFTFSFYTMFWVRQAPGKGLEWVSSIRPSGGLTGYADSVKGRFTISRDNSKNTLYLQMNSLRAEDTAVYYCARGMQRGLDYWGQGTLVTVSS VL: QSALSQPPSASGTPGQRVSISCSGSSSNIGSYYVYWYQHLPGTAPKLLIYRNNQRPSGVPDRFSGSKSGTSASLAISGLRSEDESDYYCAAWDDRLSAWVFGGGTKLTVLG"
binds,,"fully human anti-ALK IgG A2 (antibody, V domains shown, Full length fully human IgG) VH: EVQLLESGGGLVQPGGSLRLSCAASGFTFSGYTMYWVRQAPGKGLEWVSSISPSGGITFYADSVKGRFTISRDNSKNTLYLQMNSLRAEDTAVYYCARGRLFWSGYYTNRLGYAFDIWGQGTMVTVSS VL: DIQMTQSPSSLSASVGDRVTITCRASQSIRSYLNWYQQKPGKAPKLLIYAASNLQSGVPSRFSGSGSGTDFTLSISSLQPEDFATYYCQQSYSTLWTFGQGTKVEIK"
binds,,"fully human anti-ALK IgG B2 (antibody, V domains shown, Full length fully human IgG) VH: EVQLLESGGGLVQPGGSLRLSCAASGFTFSHYMMEWVRQAPGKGLEWVSGIVPSGGLTTYADSVKGRFTISRDNSKNTLYLQMNSLRAEDTAVYYCATITMGAFDIWGQGTMVTVSS VL: not shown"
binds,,"fully human anti-ALK IgG D5 (antibody, V domains shown, Full length fully human IgG) VH: EVQLLESGGGLVQPGGSLRLSCAASGFTFSNYRMSWVRQAPGKGLEWVSWIYSSGGMTTYADSVKGRFTISRDNSKNTLYLQMNSLRAEDTAVYYCARERSKNYDTSVPVGFDIWGQGTMVTVSS VL: DIQMTQSPATLSLSPGERATLSCRASQSISSFLAWYQHKPGQAPRLLIYDASNRATGIPARFSGSGSGTDFTLTISSLEPEDFAVYYCQQRTTWPPALTFGGGTKVEIK"
binds,binds,"fully human anti-ALK IgG D10 (antibody, V domains shown, Full length fully human IgG; also called DlO; DlO antibody) VH: EVQLLESGGGLVQPGGSLRLSCAASGFTFSKYGMHWVRQAPGKGLEWVSYIVPSGGYTIYADSVKGRFTISRDNSKNTLYLQMNSLRAEDTAMYYCAKLAGDWFDPWGQGTLVTVSS VL: DIQMTQSPLSLPVTLGQPASISCRSSQSLVHSNGNTYLSWFHQRPGQSPRRLIHKISDRVSGVPDRFSGSGSGTDFTLKISRLEAEDVGIYYCMQGTHWPPTFGQGTKVEIK"
binds,,"fully human anti-ALK IgG E5 (antibody, V domains shown, Full length fully human IgG) VH: EVQLLESGGGLVQPGGSLRLSCAASGFTFSLYPMMWVRQAPGKGLEWVSVISSSGGFTFYADSVKGRFTISRDNSKNTLYLQMNSLRAEDTAVYYCARSLAYIFDAFDIWGQGTMVTVSS VL: DIQMTQSPGTLSLSPGERATLYCRASQSLYSSYLAWYQQRPGQAPRLLIYDTSSRATGIPDRFSGSGSGTDFTLTISRLEPEDFAVYYCQQYGTSLRTFGQGTKVEIK"
binds,,"fully human anti-ALK IgG B8 (antibody, V domains shown, Full length fully human IgG) VH: EVQLLESGGGLVQPGGSLRLSCAASGFTFSQYVMAWVRQAPGKGLEWVSSIWSSGGMTWYADSVKGRFTISRDNSKNTLYLQMNSLRAEDTAVYYCAKHGVLRYFDWSMPFDFWGQGTLVTVSS VL: DIQMTQSPPSLSASVGDRVTITCRTSQNISSYLNWYQQKPGKAPKLLIYAASSLQSGVPSRFSGSGSGTDFTLTIRSLQPEDFAAYYCQQSYTSLTFGGGTKVEIK"
binds,,"fully human anti-ALK IgG E1 (antibody, V domains shown, Full length fully human IgG; also called El) VH: EVQLLESGGGLVQPGGSLRLSCAASGFTFSWYSMWWVRQAPGKGLEWVSSIRPSGGKTTYADSVKGRFTISRDNSKNTLYLQMNSLRAEDTAVYYCAKGLDPNGIAAAGGEGYWGQGTLVTVSS VL: QSALTQPASVSGSPGQSITITCSGDALPKQFGYWYQQKPGQAPILVIYKDTERPSGIPERFSGSSSGTIVTLTISGVRAEDEADYYCQSADSSGNSVVFGGGTKLTVLG"
